Laboratory results taken from patent US20230203197A1 (UNIVERSITE DE TOUR, published 2023).
Like-named read-outs stand apart in the source and are kept apart here.

T1: neutrophil proteinase 3 (PR3), purified native human PR3 (human, UniProt P24158 28-248)
T1 construct: Also used in denatured form in western blot and as the antigen of the EuroImmun anti-PR3 kit; also called native PR3
T1 sequence: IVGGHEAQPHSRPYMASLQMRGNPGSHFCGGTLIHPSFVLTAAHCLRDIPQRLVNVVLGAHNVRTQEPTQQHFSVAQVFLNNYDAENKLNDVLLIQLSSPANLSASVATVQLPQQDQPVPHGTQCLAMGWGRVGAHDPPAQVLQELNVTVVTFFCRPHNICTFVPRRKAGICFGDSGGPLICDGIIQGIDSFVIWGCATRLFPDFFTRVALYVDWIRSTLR

T2: OVA
T2 construct: One of the antigens of group m15; also called ovalbumin
T2 chain: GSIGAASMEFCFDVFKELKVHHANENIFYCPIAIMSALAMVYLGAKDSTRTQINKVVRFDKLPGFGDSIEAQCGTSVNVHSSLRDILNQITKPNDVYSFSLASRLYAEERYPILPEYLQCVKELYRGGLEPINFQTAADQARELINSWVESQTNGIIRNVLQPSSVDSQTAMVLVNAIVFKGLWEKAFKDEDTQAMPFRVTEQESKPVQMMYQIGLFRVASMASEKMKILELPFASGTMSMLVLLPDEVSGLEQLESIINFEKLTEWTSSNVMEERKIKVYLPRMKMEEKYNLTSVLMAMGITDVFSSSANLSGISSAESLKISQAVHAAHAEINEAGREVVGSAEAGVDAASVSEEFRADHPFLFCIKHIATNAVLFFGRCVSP

T3: Cathepsin G (Cath G) (UniProt P08311 21-244)
T3 sequence (looked up): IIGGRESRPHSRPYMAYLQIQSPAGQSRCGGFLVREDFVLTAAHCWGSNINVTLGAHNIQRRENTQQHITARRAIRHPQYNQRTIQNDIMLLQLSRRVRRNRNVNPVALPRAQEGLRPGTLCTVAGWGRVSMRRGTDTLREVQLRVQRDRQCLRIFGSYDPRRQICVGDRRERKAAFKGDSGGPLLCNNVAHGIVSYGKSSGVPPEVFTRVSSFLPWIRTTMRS

T4: Elastase (UniProt P08246 30-247, limits assumed)
T4 sequence (looked up): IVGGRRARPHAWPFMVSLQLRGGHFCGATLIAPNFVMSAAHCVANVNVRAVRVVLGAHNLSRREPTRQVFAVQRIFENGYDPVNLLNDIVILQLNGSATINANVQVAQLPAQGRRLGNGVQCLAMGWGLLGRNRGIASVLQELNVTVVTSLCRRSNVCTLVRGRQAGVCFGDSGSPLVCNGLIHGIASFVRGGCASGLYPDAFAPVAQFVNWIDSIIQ


Assays:
[1] = molecular target: T1, neutrophil proteinase 3 (PR3), purified …; assay: BIACORE (SPR)
[2] = molecular target: T2, OVA; assay: specificity ELISA on different coated antigens (n=5)
[3] = molecular target: T3, Cathepsin G (Cath G); assay: western blot, 4C3 as the primary antibody
Text: (§1) To confirm anti-PR3 specificity, 4C3 was used as a primary antibody in western blot (FIGS. 8A and 8B) on protein lysates from neutrophils, HeLa cells (ATCC® CCL-2™) and human PR3.

[4] = molecular target: T4, Elastase; assay: western blot, 4C3 as the primary antibody
Text: as §1

[5] = molecular target: T5, BSA (bovine, UniProt P02769); assay: ELISA, compared with coated PR3
T5 construct: in the ELISA well; also called Bovine Serum Albumin
T5 sequence (P02769 25-607 limits assumed): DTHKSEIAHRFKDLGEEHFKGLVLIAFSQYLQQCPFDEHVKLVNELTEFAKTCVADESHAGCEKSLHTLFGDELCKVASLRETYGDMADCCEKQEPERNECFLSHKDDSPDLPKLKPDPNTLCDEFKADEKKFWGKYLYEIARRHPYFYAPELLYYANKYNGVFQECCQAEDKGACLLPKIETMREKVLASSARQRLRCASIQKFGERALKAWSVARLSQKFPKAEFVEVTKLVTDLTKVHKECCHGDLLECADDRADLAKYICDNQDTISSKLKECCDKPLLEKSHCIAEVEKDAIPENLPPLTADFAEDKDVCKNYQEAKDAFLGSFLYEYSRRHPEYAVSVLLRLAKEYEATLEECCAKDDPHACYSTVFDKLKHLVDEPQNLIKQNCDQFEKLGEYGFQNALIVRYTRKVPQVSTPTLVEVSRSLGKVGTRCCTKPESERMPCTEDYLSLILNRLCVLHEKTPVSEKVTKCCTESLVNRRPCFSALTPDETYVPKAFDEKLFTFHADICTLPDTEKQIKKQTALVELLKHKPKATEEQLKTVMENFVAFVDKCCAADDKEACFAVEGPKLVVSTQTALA

[6] = molecular target: T6, peptide 4C3_3.2 of PR3, biotinylated (human, biotinylated (position not given)); assay: HTRF: anti-Fab antibody coupled to d2 on 4C3, terbium-streptavidin on the biotinylated peptide; ratio, baseline-corrected
T6 construct: also called peptide 3.2
Description: The identification of the epitope recognised by the 4C3 antibody was carried out by MabSilico. The first step enabled the PR3 epitope to be modelled using the MabTope method, which consists of the computer prediction of an ordered list of PR3 peptides likely to belong to the epitope from the sequence of the variable part (VH and VL) of 4C3 (FIGS. 4B and 4C). The second step allowed the experimental measurement of the specific binding of a number of these peptides to the antibody. This measurement was made by HTRF (Homogeneous Time Resolved Fluorescence) between an anti-Fab d2-coupled antibody (CisBio™) which binds to the antibody of interest, and a terbium-coupled streptavidin (CisBio™) which binds to the biotinylated peptide (FIG. 4D).

[7] = molecular target: T1, neutrophil proteinase 3 (PR3), purified …; assay: BIACORE (SPR); remark: listed apart in the source
[8] = molecular target: T2, OVA; assay: ELISA, compared with coated PR3

Kd [1] [nM]	koff [1] [s⁻¹]	kon [1] [M⁻¹ s⁻¹]	binding result [2]	binding result [3]	binding result [4]	binding result [5]	binding result [6]	Kd [7] [nM]	koff [7] [s⁻¹]	kon [7] [M⁻¹ s⁻¹]	Binder	binding result [8]
0.741	0.00936	1.26e+07	no binding	no binding (tested: 5 µg per lane)	no binding (tested: 5 µg per lane)	no binding	binds				human monoclonal anti-proteinase 3 (PR3) 4C3 antibody, G1m3-1 allotype (antibody, human IgG1, kappa, also called MAb 4C3; AcMo 4C3) heavy: not shown light: DIQMTQSPPTLSASVGDRVTITCRASQSISDWLAWYQQKPGKPPQLLIYKASSLESGVPSRFSGTGSGAEFTLTISSLQPDDSATYYCQQYNSYSNTFGQGTKLEIKRTVAAPSVFIFPPSDEQLKSGTASVVCLLNNFYPREAKVQWKVDNALQSGNSQESVTEQDSKDSTYSLSSTLTLSKADYEKHKVYACEVTHQGLSSPVTKSFNRGEC	
						no binding		0.684	0.00936	1.37e+07	recombinant 4C3 antibody (r4C3), G1m17-1 allotype (antibody, human IgG1, kappa, Produced in HEK-293 cells; differs from 4C3 only by R>K at position 224 of the heavy chain constant region) heavy: not shown light: DIQMTQSPPTLSASVGDRVTITCRASQSISDWLAWYQQKPGKPPQLLIYKASSLESGVPSRFSGTGSGAEFTLTISSLQPDDSATYYCQQYNSYSNTFGQGTKLEIKRTVAAPSVFIFPPSDEQLKSGTASVVCLLNNFYPREAKVQWKVDNALQSGNSQESVTEQDSKDSTYSLSSTLTLSKADYEKHKVYACEVTHQGLSSPVTKSFNRGEC	no binding (tested: 1 µg/ml (coating of Ova))
